# Measured values reported in publication doi:10.1101/2024.10.11.617910.
# Experiments:
# [1] = target: pyroglutamate beta-amyloid peptide (pGlu3-Aβ); experiment: SiMoA
# beta-amyloid 42 peptide = beta-amyloid 42 peptide (UniProt P05067); experiment: SiMoA
Substance,limit of detection (LoD) [1] [pM],limit of detection (LoD) (beta-amyloid 42 peptide) [pM]
Donanemab (antibody),5,
Aducanumab (antibody),56,200
